From paper PMC3485013, “Rubber Elongation Factor (REF), a Major Allergen Component in Hevea brasiliensis Latex Has Amyloid Properties” (PLoS ONE, 2012)

Biological target: the molecule itself
Assay: aggregation of the purified protein in solution (visible precipitation; aggregates examined by Congo red, CD, ATR-FTIR, TEM, WAXS); protein alone at 20 µM in 1x PBS pH 7.4, 37°C, 3 h, kept at 4°C (legend of Figure 2C: 50 µM)

B1: Rubber Elongation Factor (REF), recombinant 6His-REF (natural protein, Hevea brasiliensis, UniProt P15252 1-138, looked up)
chain: MAEDEDNQQGQGEGLKYLGFVQDAATYAVTTFSNVYLFAKDKSGPLQPGVDIIEGPVKNVAVPLYNRFSYIPNGALKFVDSTVVASVTIIDRSLPPIVKDASIQVVSAIRAAPEAARSLASSLPGQTKILAKVFYGEN
notes: gene synthesised after codon optimisation from GenBank X56535; No removal of the tag is described, and the same preparation is detected by anti-His antibody in the lipid dot blots; also called Hevb1; HbREF; source: E. coli BL21 (DE3) pLysS Gold, inclusion bodies, purified (Ni-NTA in 8 M urea, dialysed against buffer A); not shown: His6, N-terminal, kept
binding result: binds
